T1: PRLR-expressing cells (T47D) (Homo sapiens, UniProt P16471)
T1 construct: a native PRLR expressing cell line (T47D); endogenous in cells; host or cells: T47D
T1 sequence (P16471 25-622): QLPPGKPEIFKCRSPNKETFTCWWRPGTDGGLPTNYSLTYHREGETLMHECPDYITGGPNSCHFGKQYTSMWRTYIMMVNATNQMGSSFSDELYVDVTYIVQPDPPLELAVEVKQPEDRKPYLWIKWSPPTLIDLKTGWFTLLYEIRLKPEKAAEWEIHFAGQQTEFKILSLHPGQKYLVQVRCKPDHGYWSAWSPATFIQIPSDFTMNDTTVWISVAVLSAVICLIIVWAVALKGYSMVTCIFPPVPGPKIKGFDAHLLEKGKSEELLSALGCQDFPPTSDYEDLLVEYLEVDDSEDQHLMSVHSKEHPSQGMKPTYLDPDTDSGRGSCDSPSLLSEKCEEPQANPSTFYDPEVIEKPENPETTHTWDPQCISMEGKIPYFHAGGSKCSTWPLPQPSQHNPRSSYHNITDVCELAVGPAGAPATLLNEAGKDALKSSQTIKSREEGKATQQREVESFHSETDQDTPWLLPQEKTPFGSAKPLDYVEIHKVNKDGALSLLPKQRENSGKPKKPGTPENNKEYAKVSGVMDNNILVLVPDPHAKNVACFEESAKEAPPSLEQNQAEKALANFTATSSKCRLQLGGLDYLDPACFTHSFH

B1: H1H6801P: anti-PRLR antibody, human IgG1 Fc; HCVR/LCVR SEQ ID NOs 210/218 (antibody, V domains shown)
VH: QVQLQQSGPGLVKPSQTLSLTCVISGDSVSSNTAWNWVRQSPSRGLEWLGRTYYRSKWYNDYAVSVKSRITINPDTSKNQFSLLMNSVTPEDTAVYYCARVVRGLNYFDYWGQGTLVTVSS
VL: DIVMTQSPDSLAVSLGERATINCKSSQSVLYNSNNKNYLAWYQQKPGQPPKLLIYWSSSRESGVPDRFSGSGSGTDFTLTISGLQAEDVAIYYCQQYSTIPYTFGQGTKLEIK
modifications: human IgG1 Fc
B2: H1H6803P: anti-PRLR antibody, human IgG1 Fc; HCVR/LCVR SEQ ID NOs 226/234 (antibody, V domains shown)
VH: EVQLVESGGGVVRPGGSLRLSCAASGFKFDDYGMTWVRHVPGKGLEWVSGINWNGGRTGYTDSVKGRFTISRDNAKNSLYLQMNSLRAEDTALYHCAGARRDAFDIWGQGTMVTVSS
VL: DIQMTQSPSSLSASIGDRVTITCRASQNIIKYLNWYQQNAGKAPKLLIYTASSLQSGVPSRFSGSGSGTDFTLTISSLQPEDFATYYCQQSSSSPYTFGQGTKLEIK
modifications: human IgG1 Fc
B3: H1H6804P: anti-PRLR antibody, human IgG1 Fc; HCVR/LCVR SEQ ID NOs 242/250 (antibody, V domains shown)
VH: QVTLKESGPVLVKPTQTLSLTCTVSGFSLSDAGMGVSWIRQPPGKALEWLAHIFSNDGKSYSTSLKSRLTISKDTSKRQVVLTMTNMDPVDTATYYCARIRTGTYSLYLDYWGQGTLVTVSS
VL: DIQMTQSPSSLSASVGDRVTITCRASQSINSYLNWYQQKPGKAPKLLLYFASSLQSGVPSRFSGSGSGTDFTLTISSLQPEDFASYYCQESYSTPWTFGQGTKVEIK
modifications: human IgG1 Fc
B4: H1H6800P: anti-PRLR antibody, human IgG1 Fc; HCVR/LCVR SEQ ID NOs 194/202 (antibody, V domains shown)
VH: EVQLVESGGGLVQPGRSLRLSCAASGFTFDGYAMHWVRQGPGKGLEWVSGISWYSDTLGYADSVKGRFTISRDNAKNSLYLQMNSLRTEDTAFYYCAKISSSGWAFDYWGQGTLVTVSS
VL: EIVLTQSPGTLSLSPGERATLSCRASHSVSSAYLAWYQQKPGQTPRLLIYGTSSRATGIPDRFSGSGSGTDFTLTISRLEPEDFAVYYCQQYGSSPLFTFGPGTKVDIK
modifications: human IgG1 Fc
B5: H1H6953N: human IgG1 Fc form of H1M6953N; anti-PRLR; HCVR/LCVR SEQ ID NOs 274/282 (antibody, V domains shown)
VH: EVQLLESGGGLVQPGGTLRLSCAASGFTFSAYAMSWVRQAPGKGLEWVSSINVRAGDTYYADSVKGRFTISRDNSKNTLFLLMNSLRAEDTAAYYCAKARYSSNWGFDFWGQGTLVTVSS
VL: DIVMTQSPDSLTVSLGARTTINCQSSQTILHSSNNHNYLAWYQQKPGLPPKLLIYWSSTRESGVPDRFSGSGSGTDFTLTISSLQAEDVAIYYCQQYSNTPYTFGQGTKLEIN
modifications: human IgG1 Fc

Target: T1, PRLR-expressing cells (T47D)
Test: Antibody binding and internalization by PRLR-expressing cells (imaging)
Assay type: cell-based
Settings: [mAb] (0.67 nM), alexa488 intensity in intracellular vesicles, 1 h at 37° C.

Question: Which “% Internalization relative to Control I” value does the source give for B1 here?
Answer: The value was 148.9%.

Question: How did the “% Internalization relative to Control I” value turn out when B2 was run?
Answer: Its value is 190.5%.

Question: For B3, which “% Internalization relative to Control I” value is on record?
Answer: The value was 138.9%.

Question: With B4 as the molecule, how does the “% Internalization relative to Control I” value read?
Answer: Its value is 198.3%.

Question: B5 was tested. Which “% Internalization relative to Control I” value did it give?
Answer: Its value is 153.9%.

Same assay, conditions: [mAb] (0.67 nM), whole cell alexa488 intensity at 37° C.

Question: B1 was tested. Which “% Total Binding relative to Control I” value did it give?
Answer: The value was 155.7%.

Question: B2 was tested. Which “% Total Binding relative to Control I” value did it give?
Answer: The value was 205.5%.

Question: With B3 as the molecule, how does the “% Total Binding relative to Control I” value read?
Answer: Its value is 149.6%.

Question: B4 was tested. Which “% Total Binding relative to Control I” value did it give?
Answer: The value was 186.8%.

Question: How did the “% Total Binding relative to Control I” value turn out when B5 was run?
Answer: The value was 164.2%.

Tested on: HEK293/mfPRLR
Sequence (as listed by the source): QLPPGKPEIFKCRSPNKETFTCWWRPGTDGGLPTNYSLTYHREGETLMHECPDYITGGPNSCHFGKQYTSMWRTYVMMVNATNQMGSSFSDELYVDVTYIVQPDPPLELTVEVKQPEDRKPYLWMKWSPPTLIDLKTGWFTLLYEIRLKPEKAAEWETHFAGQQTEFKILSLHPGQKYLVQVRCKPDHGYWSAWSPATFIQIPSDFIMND
Test: FACS cell surface binding
Set-up: species or system macaca fascicularis
Settings: not given
How it was run: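 HEK293 lines stably expressing HA-tagged human, cynomolgus or mouse PRLR, native-expressing T47D and parental HEK293 tested by flow cytometry. Cells (1×10^5) stained with primary antibody 30 min on ice, then PE anti-human secondary; MFI expressed as fold over isotype control.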

Question: With B1 as the molecule, how does the “FACS Cell Binding (Fold Above Background)” value read?
Answer: The value was 88 Fold Above Background.

Question: Which “FACS Cell Binding (Fold Above Background)” value does the source give for B2 here?
Answer: The value was 28 Fold Above Background.

Question: Which “FACS Cell Binding (Fold Above Background)” value does the source give for B3 here?
Answer: The value was 29 Fold Above Background.

Question: With B4 as the molecule, how does the “FACS Cell Binding (Fold Above Background)” value read?
Answer: Its value is 29 Fold Above Background.

Question: B5 was tested. Which “FACS Cell Binding (Fold Above Background)” value did it give?
Answer: Its value is 29 Fold Above Background.

Target: mfPRLR.mmh (monomeric macaca fascicularis PRLR)
Sequence (as listed by the source): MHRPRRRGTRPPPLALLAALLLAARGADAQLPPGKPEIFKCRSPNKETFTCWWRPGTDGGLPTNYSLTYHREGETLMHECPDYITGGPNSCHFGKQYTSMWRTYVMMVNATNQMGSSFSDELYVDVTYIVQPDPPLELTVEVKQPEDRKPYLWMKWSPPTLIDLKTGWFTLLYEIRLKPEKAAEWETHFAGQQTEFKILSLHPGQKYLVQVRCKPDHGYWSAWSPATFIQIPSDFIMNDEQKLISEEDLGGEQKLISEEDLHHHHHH
Test: Surface plasmon resonance (Biacore T200), mAb-capture format
Assay type: binding
Settings: 25° C., antibody-capture format, analyte mfPRLR.mmh
How it was run: (§1)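 On a Biacore T200, PRLR analytes—dimeric human hPRLR.mFc or monomeric human or cynomolgus .mmh constructs—flowed over IgG1 antibodies captured by anti-human Fc. Association and dissociation rate constants fitted to 1:1 model.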

Question: Which results are given for B1?
Answer: Kd: 1.88 nM; T½: 9 min

Question: What does the source list for B2?
Answer: Kd: 3.37 nM; T½: 55 min

Question: How did the Kd turn out when B3 was run?
Answer: The Kd was 1.99 nM.

Question: What about the T½ of the same molecule?
Answer: Its T½ is 18 min.

Question: B4 was tested. Which Kd did it give?
Answer: Its Kd is 1.25 nM.

Question: And the T½?
Answer: Its T½ is 30 min.

Question: What does the source list for B5?
Answer: Kd: 0.438 nM; T½: 36.3 min

Same assay, conditions: 37° C., antibody-capture format, analyte mfPRLR.mmh

Question: With B1 as the molecule, how does the Kd read?
Answer: Its Kd is 10.8 nM.

Question: What about the T½ of the same molecule?
Answer: The T½ was 1 min.

Question: With B2 as the molecule, how does the Kd read?
Answer: Its Kd is 7.28 nM.

Question: What about the T½ of the same molecule?
Answer: The T½ was 18 min.

Question: With B3 as the molecule, how does the Kd read?
Answer: Its Kd is 9.35 nM.

Question: What about the T½ of the same molecule?
Answer: Its T½ is 3 min.

Question: How did the Kd turn out when B4 was run?
Answer: Its Kd is 2.48 nM.

Question: And the T½?
Answer: The T½ was 11 min.

Question: With B5 as the molecule, how does the Kd read?
Answer: Its Kd is 2.71 nM.

Question: And the T½?
Answer: Its T½ is 4.5 min.

Target: T2, hPRLR.mmh (soluble monomeric human PRLR) (Homo sapiens, UniProt P16471)
T2 construct: soluble monomeric (hPRLR.mmh); mmh (myc-myc-hexahistidine)
T2 sequence (P16471 with tags, fused parts or gaps): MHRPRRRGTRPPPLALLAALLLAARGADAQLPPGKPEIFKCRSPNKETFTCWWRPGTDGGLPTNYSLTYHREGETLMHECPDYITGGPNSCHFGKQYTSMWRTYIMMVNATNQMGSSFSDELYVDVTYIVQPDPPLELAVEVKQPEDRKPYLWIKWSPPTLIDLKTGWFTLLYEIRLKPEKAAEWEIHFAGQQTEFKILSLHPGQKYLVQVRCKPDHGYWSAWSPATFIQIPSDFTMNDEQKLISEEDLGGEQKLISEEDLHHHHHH
Test: as above
Assay type: binding
Settings: 25° C., antibody-capture format, analyte hPRLR.mmh
How it was run: as §1

Question: B1 was tested. Which Kd did it give?
Answer: Its Kd is 0.894 nM.

Question: What about the T½ of the same molecule?
Answer: The T½ was 15 min.

Question: With B2 as the molecule, how does the Kd read?
Answer: Its Kd is 1.67 nM.

Question: And the T½?
Answer: The T½ was 84 min.

Question: For B3, which Kd is on record?
Answer: Its Kd is 1.4 nM.

Question: And the T½?
Answer: Its T½ is 18 min.

Question: Which results are given for B4?
Answer: Kd: 0.972 nM; T½: 28 min

Question: For B5, which Kd is on record?
Answer: The Kd was 0.268 nM.

Question: And the T½?
Answer: Its T½ is 54.5 min.

Same assay, conditions: 37° C., antibody-capture format, analyte hPRLR.mmh

Question: Which Kd does the source give for B1 here?
Answer: Its Kd is 4.63 nM.

Question: And the T½?
Answer: Its T½ is 3 min.

Question: Which results are given for B2?
Answer: Kd: 2.83 nM; T½: 32 min

Question: Which results are given for B3?
Answer: Kd: 6.34 nM; T½: 3 min

Question: For B4, which Kd is on record?
Answer: Its Kd is 1.47 nM.

Question: And the T½?
Answer: The T½ was 10 min.

Question: Which Kd does the source give for B5 here?
Answer: Its Kd is 1.11 nM.

Question: What about the T½ of the same molecule?
Answer: The T½ was 9.4 min.

Target: T3, hPRLR.mFc (soluble dimeric human PRLR) (Homo sapiens, UniProt P16471)
T3 construct: dimeric (hPRLR.mFc)
T3 sequence (P16471 with tags, fused parts or gaps): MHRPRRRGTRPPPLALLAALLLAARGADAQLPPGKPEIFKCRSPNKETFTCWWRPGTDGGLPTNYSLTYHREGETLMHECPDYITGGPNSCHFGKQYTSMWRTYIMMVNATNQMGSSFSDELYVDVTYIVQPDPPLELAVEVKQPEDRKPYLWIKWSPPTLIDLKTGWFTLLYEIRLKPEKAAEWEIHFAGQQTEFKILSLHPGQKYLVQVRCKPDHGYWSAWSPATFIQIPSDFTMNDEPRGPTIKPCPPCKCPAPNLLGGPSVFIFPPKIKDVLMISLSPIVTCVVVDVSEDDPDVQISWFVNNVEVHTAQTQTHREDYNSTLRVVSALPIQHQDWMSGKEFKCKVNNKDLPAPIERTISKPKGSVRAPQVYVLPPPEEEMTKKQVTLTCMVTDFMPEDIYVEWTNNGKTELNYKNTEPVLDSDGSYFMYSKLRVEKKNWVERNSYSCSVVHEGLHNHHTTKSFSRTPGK
Test: as above
Assay type: binding
Settings: 25° C., antibody-capture format, analyte hPRLR.mFc
How it was run: as §1

Question: What does the source list for B1?
Answer: Kd: 0.161 nM; T½: 106 min

Question: Which results are given for B2?
Answer: Kd: 0.607 nM; T½: 184 min

Question: How did the Kd turn out when B3 was run?
Answer: Its Kd is 0.193 nM.

Question: And the T½?
Answer: The T½ was 133 min.

Question: Which Kd does the source give for B4 here?
Answer: Its Kd is 0.184 nM.

Question: What about the T½ of the same molecule?
Answer: Its T½ is 133 min.

Question: B5 was tested. Which Kd did it give?
Answer: The Kd was 0.067 nM.

Question: What about the T½ of the same molecule?
Answer: Its T½ is 242.2 min.

Same assay, conditions: 37° C., antibody-capture format, analyte hPRLR.mFc

Question: With B1 as the molecule, how does the Kd read?
Answer: Its Kd is 0.279 nM.

Question: What about the T½ of the same molecule?
Answer: The T½ was 52 min.

Question: What does the source list for B2?
Answer: Kd: 0.461 nM; T½: 186 min

Question: Which results are given for B3?
Answer: Kd: 0.369 nM; T½: 56 min

Question: For B4, which Kd is on record?
Answer: Its Kd is 0.229 nM.

Question: And the T½?
Answer: The T½ was 79 min.

Question: B5 was tested. Which Kd did it give?
Answer: The Kd was 0.116 nM.

Question: What about the T½ of the same molecule?
Answer: The T½ was 68.0 min.
